Data as given in US20170002055A1, “Novel peptides and combination of peptides for use in immunotherapy against ovarian cancer and other cancers” (immatics biotechnologies GmbH, priority 2015, published 2017).

biological target: HLA-A*02:01 (Homo sapiens, UniProt P04439, D140Y/D185E/D98H/E176V/E277Q/G131W/G231S/I119V/I121R/I166T/I218V/L300P/L318F/N151K/N90K/P208A/P217A/Q86G/Q94H/R138H/R169H/T345S); assay: MHC binding assay (UV-ligand exchange, β2m ELISA, peptide exchange yield); settings: MHC class I binding score; binding to HLA-A*02:01 ranged by peptide exchange yield (UV-ligand exchange, β2m ELISA)
How it was run: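 Peptide–HLA-A*02:01 complexes were formed by UV-mediated exchange of a UV-cleavable ligand for the test peptide. Exchange yield was measured by capturing complexes on streptavidin, detecting with HRP anti-β2m antibody (1 h, 37°C) and reading TMB absorbance at 450 nm.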

Substance	Peptide exchange
387 (ALFQATAEV; listed as Homo sapiens) [compound 387]	“++++” (≧75% = ++++)
388 (SLTIDGIRYV; listed as Homo sapiens) [compound 388]	“+++” (≧50 = +++)
389 (LLADVTHLL; listed as Homo sapiens) [compound 389]	“++” (≧20% = ++)
390 (ALFMKQIYL; listed as Homo sapiens) [compound 390]	“+++” (≧50 = +++)
391 (YVYPQRLNFV; listed as Homo sapiens) [compound 391]	“+++” (≧50 = +++)
392 (ALLHPQGFEV; listed as Homo sapiens) [compound 392]	“++” (≧20% = ++)
393 (GLLDTQTSQVLTA; listed as Homo sapiens) [compound 393]	“++” (≧20% = ++)
394 (LLAVIGGLVYL; listed as Homo sapiens) [compound 394]	“+++” (≧50 = +++)
396 (ALLPDLPAL; listed as Homo sapiens) [compound 396]	“+++” (≧50 = +++)
397 (YLFGERLLEC; listed as Homo sapiens) [compound 397]	“+++” (≧50 = +++)
398 (KLLEEDGTIITL; listed as Homo sapiens) [compound 398]	“++” (≧20% = ++)
399 (YLFEPLYHV; listed as Homo sapiens) [compound 399]	“+++” (≧50 = +++)
400 (SLLTEQDLWTV; listed as Homo sapiens) [compound 400]	“++” (≧20% = ++)
401 (ILLDDTGLAYI; listed as Homo sapiens) [compound 401]	“+++” (≧50 = +++)
402 (VLFSGALLGL; listed as Homo sapiens) [compound 402]	“++” (≧20% = ++)
403 (KLYDRILRV; listed as Homo sapiens) [compound 403]	“++” (≧20% = ++)
405 (ALYDVFLEV; listed as Homo sapiens) [compound 405]	“++” (≧20% = ++)
407 (YLMDLINFL; listed as Homo sapiens) [compound 407]	“+++” (≧50 = +++)
408 (VLDDSIYLV; listed as Homo sapiens) [compound 408]	“++” (≧20% = ++)
409 (LLDAMNYHL; listed as Homo sapiens) [compound 409]	“++” (≧20% = ++)
412 (YLDDLNEGVYI; listed as Homo sapiens) [compound 412]	“++” (≧20% = ++)
426 (RLADKSVLV; listed as Homo sapiens) [compound 426]	“+++” (≧50 = +++)
427 (ALLPLSPYL; listed as Homo sapiens) [compound 427]	“+++” (≧50 = +++)
428 (KLGHTDILVGV; listed as Homo sapiens) [compound 428]	“++” (≧20% = ++)
429 (GLVNDLARV; listed as Homo sapiens) [compound 429]	“++” (≧20% = ++)
430 (HLYSSIEHLTT; listed as Homo sapiens) [compound 430]	“+++” (≧50 = +++)

Substance	Peptide exchange
431 (SLVNVVPKL; listed as Homo sapiens) [compound 431]	“++” (≧20% = ++)
432 (TLIEESAKV; listed as Homo sapiens) [compound 432]	“++” (≧20% = ++)
433 (AMLNEPWAV; listed as Homo sapiens) [compound 433]	“+++” (≧50 = +++)
434 (KVSNSGITRV; listed as Homo sapiens) [compound 434]	“++” (≧20% = ++)
436 (HLAEVSAEV; listed as Homo sapiens) [compound 436]	“+++” (≧50 = +++)
437 (SMAPGLVIQAV; listed as Homo sapiens) [compound 437]	“+++” (≧50 = +++)
438 (KLLPLAGLYL; listed as Homo sapiens) [compound 438]	“++++” (≧75% = ++++)
439 (YLLQEIYGI; listed as Homo sapiens) [compound 439]	“+++” (≧50 = +++)
440 (ALADGVTMQV; listed as Homo sapiens) [compound 440]	“++” (≧20% = ++)
441 (ALLENPKMEL; listed as Homo sapiens) [compound 441]	“+++” (≧50 = +++)
442 (GLLGGGGVLGV; listed as Homo sapiens) [compound 442]	“+++” (≧50 = +++)
444 (GLLRDEALAEV; listed as Homo sapiens) [compound 444]	“+++” (≧50 = +++)
447 (QLVPALAKV; listed as Homo sapiens) [compound 447]	“++” (≧20% = ++)
448 (NLLETKLQL; listed as Homo sapiens) [compound 448]	“+++” (≧50 = +++)
449 (KLAEGLDIQL; listed as Homo sapiens) [compound 449]	“+++” (≧50 = +++)
450 (FMIDASVHPTL; listed as Homo sapiens) [compound 450]	“+++” (≧50 = +++)
451 (LLLLDTVTMQV; listed as Homo sapiens) [compound 451]	“++” (≧20% = ++)
452 (ILLEHGADPNL; listed as Homo sapiens) [compound 452]	“+++” (≧50 = +++)
453 (KLLEATSAV; listed as Homo sapiens) [compound 453]	“++” (≧20% = ++)
455 (SLLKEPQKVQL; listed as Homo sapiens) [compound 455]	“++” (≧20% = ++)
456 (LLIGHLERV; listed as Homo sapiens) [compound 456]	“+++” (≧50 = +++)
457 (SLLPGNLVEKV; listed as Homo sapiens) [compound 457]	“+++” (≧50 = +++)
458 (SLIDKLYNI; listed as Homo sapiens) [compound 458]	“++” (≧20% = ++)
459 (ALITEVVRL; listed as Homo sapiens) [compound 459]	“++” (≧20% = ++)
461 (VMFRTPLASV; listed as Homo sapiens) [compound 461]	“++” (≧20% = ++)
462 (KLAKQPETV; listed as Homo sapiens) [compound 462]	“+++” (≧50 = +++)

Substance	Peptide exchange
464 (ALNDCIYSV; listed as Homo sapiens) [compound 464]	“+++” (≧50 = +++)
465 (QLCDLNAEL; listed as Homo sapiens) [compound 465]	“+++” (≧50 = +++)
466 (VLIANLEKL; listed as Homo sapiens) [compound 466]	“++++” (≧75% = ++++)
467 (FLAKDFNFL; listed as Homo sapiens) [compound 467]	“+++” (≧50 = +++)
468 (YLRSVGDGETV; listed as Homo sapiens) [compound 468]	“+++” (≧50 = +++)
469 (YLASDEITTV; listed as Homo sapiens) [compound 469]	“+++” (≧50 = +++)
471 (YLYNNMIAKI; listed as Homo sapiens) [compound 471]	“+++” (≧50 = +++)
472 (KLLEVSDDPQV; listed as Homo sapiens) [compound 472]	“+++” (≧50 = +++)
473 (AMATESILHFA; listed as Homo sapiens) [compound 473]	“+++” (≧50 = +++)
474 (YLDPALELGPRNV; listed as Homo sapiens) [compound 474]	“+++” (≧50 = +++)
475 (LLLNEEALAQI; listed as Homo sapiens) [compound 475]	“+++” (≧50 = +++)
476 (ALMERTGYSMV; listed as Homo sapiens) [compound 476]	“+++” (≧50 = +++)
477 (ALLPASGQIAL; listed as Homo sapiens) [compound 477]	“+++” (≧50 = +++)
478 (YLLHEKLNL; listed as Homo sapiens) [compound 478]	“+++” (≧50 = +++)
479 (SLFGNSGILENV; listed as Homo sapiens) [compound 479]	“+++” (≧50 = +++)
480 (ALLEDSCHYL; listed as Homo sapiens) [compound 480]	“+++” (≧50 = +++)
481 (GLIEDYEALL; listed as Homo sapiens) [compound 481]	“+++” (≧50 = +++)
484 (SLIEKVTQL; listed as Homo sapiens) [compound 484]	“+++” (≧50 = +++)
485 (NVPDSFNEV; listed as Homo sapiens) [compound 485]	“+++” (≧50 = +++)
486 (AVMESIQGV; listed as Homo sapiens) [compound 486]	“+++” (≧50 = +++)
487 (LLINSVFHV; listed as Homo sapiens) [compound 487]	“+++” (≧50 = +++)
488 (FLAEDPKVTL; listed as Homo sapiens) [compound 488]	“+++” (≧50 = +++)
490 (FLLQHVQEL; listed as Homo sapiens) [compound 490]	“+++” (≧50 = +++)
491 (GLNDRSDAV; listed as Homo sapiens) [compound 491]	“++” (≧20% = ++)
492 (SLFDGFADGLGV; listed as Homo sapiens) [compound 492]	“+++” (≧50 = +++)
493 (GLLGEKTQDLIGV; listed as Homo sapiens) [compound 493]	“+++” (≧50 = +++)
